Test results as given in PMC6608616 (IUCrJ, 2019).

Molecular target: Tryptophan synthase β subunit (TrpB) from Streptococcus pneumoniae (Streptococcus pneumoniae TIGR4, UniProt Q97P32 4-407, PLP covalently attached to Lys91)
Test: crystal structure
Settings: both partners purified

B1: Tryptophan synthase α subunit (TrpA) from Streptococcus pneumoniae (enzyme)
chain: MPKTLTEKLNAIKAAGKGIFVPYIMAGDHEKGLDGLAETIHFLEDLGVSAIEVGIPFSDPVADGPVIEEAGLRSLAHGTSTQALVETLKTIETEIPLVIMTYFNPLFQYGVENFVKDLADTAVKGLIIPDLPHEHANFVEPFLANTDIALIPLVSLTTGIERQKELIEGAEGFIYAVAINGVTGKSGNYRADLDKHLAQLHQVADIPVLTGFGVSSQADLERFNAVSDGVIVGSKIVKALHQGEPIQDFIRQAVAYQK
binding result: binds
